# Earlier results, collected in US20100311759A1, “ANTIPARASITIC AGENT FOR FISH AND METHOD OF CONTROLLING PROLIFERATION OF FISH PARASITES” (NIPPON SUISAN KAISHA, LTD., priority 2007, published 2010).
# System: White spot disease
# Settings: 40 mg per 1 kg of fish body weight orally per day, 28-day experimental period
molecule,measurement,value
"lactoferrin: marketed as an additive for fisheries; thought to increase non-specific biophylactic ability of host fish (protein, UniProt P24627 20-708, looked up) Lactotransferrin: APRKNVRWCTISQPEWFKCRRWQWRMKKLGAPSITCVRRAFALECIRAIAEKKADAVTLDGGMVFEAGRDPYKLRPVAAEIYGTKESPQTHYYAVAVVKKGSNFQLDQLQGRKSCHTGLGRSAGWIIPMGILRPYLSWTESLEPLQGAVAKFFSASCVPCIDRQAYPNLCQLCKGEGENQCACSSREPYFGYSGAFKCLQDGAGDVAFVKETTVFENLPEKADRDQYELLCLNNSRAPVDAFKECHLAQVPSHAVVARSVDGKEDLIWKLLSKAQEKFGKNKSRSFQLFGSPPGQRDLLFKDSALGFLRIPSKVDSALYLGSRYLTTLKNLRETAEEVKARYTRVVWCAVGPEEQKKCQQWSQQSGQNVTCATASTTDDCIVLVLKGEADALNLDGGYIYTAGKCGLVPVLAENRKSSKHSSLDCVLRPTEGYLAVAVVKKANEGLTWNSLKDKKSCHTAVDRTAGWNIPMGLIVNQTGSCAFDEFFSQSCAPGADPKSRLCALCAGDDQGLDKCVPNSKEKYYGYTGAFRCLAEDVGDVAFVKNDTVWENTNGESTADWAKNLNREDFRLLCLDGTRKPVTEAQSCHLAVAPNHAVVSRSDRAAHVKQVLLHQQALFGKNGKNCPDKFCLFKSETKNLLFNDNTECLAKLGGRPTYEEYLGTEYVTAIANLKKCSTSPLLEACAFLTR",infection,no infection was observed
